Here are results for one substance from patent US20240262869A1.

Like-named read-outs stand apart in the source and are kept apart here. Where only a bound is given, the exact number is not on record here.

The target in assay [1] is neutralizing antibody CR3022.
In assay [2] the target is neutralizing antibody CR3022. The source holds these as a separate data set.
Assay [3] has as its target neutralizing antibody CR3022. The source holds these as a separate data set.

Regarding “mInCV02R (SARS CoV-2 RBD N-1) having EIS at the N-terminal (from UniProt P0DTC2 332-532) (ligand)”, the values for the Kd in assay [1], in assay [2] and in assay [3] were less than 0.001 µM, 0.0159 µM and 0.0165 µM, respectively.

By Kd is commonly meant the concentration at which binding is half-saturated. Low readings indicate tighter binding, high ones weaker binding.
